These are literature values, as cited in paper PMC7615502.

For one data set, the target named is IL-2Rα (Homo sapiens) (UniProt P01589).
Another data set concerns the target IL-2Rβγ (Homo sapiens) (UniProt P14784).
Chain of UniProt P14784 (P14784 27-240, chain 1 of 2): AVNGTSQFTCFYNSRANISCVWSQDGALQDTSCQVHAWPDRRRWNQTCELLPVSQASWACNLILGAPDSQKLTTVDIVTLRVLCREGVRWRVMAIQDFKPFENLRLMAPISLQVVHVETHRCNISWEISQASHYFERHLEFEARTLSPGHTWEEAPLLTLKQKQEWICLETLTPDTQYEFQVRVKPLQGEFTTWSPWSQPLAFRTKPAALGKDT
Chain of UniProt P14784 (P31785 23-262, chain 2 of 2, further chain): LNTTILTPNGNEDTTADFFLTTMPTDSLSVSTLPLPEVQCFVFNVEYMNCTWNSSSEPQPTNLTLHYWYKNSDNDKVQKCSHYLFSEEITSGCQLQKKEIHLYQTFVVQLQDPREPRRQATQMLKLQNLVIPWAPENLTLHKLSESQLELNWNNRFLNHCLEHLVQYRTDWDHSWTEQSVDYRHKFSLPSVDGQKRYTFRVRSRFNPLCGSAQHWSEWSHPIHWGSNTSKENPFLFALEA

Chain of UniProt P01589 (P01589 22-240): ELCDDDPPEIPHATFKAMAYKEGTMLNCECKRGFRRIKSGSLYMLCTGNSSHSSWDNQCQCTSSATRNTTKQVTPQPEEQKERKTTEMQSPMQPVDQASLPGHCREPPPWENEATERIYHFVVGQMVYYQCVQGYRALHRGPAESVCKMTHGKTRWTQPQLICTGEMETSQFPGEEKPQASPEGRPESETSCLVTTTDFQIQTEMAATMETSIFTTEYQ

The term Kd denotes a measure of binding affinity in units of concentration. Consider IL-2 (from UniProt P60568), for which the Kd in the data set with IL-2Rα (Homo sapiens) was 10 nM; in the data set with IL-2Rβγ (Homo sapiens), 1 nM.
